{
  "source": "patent US10940198B2",
  "about": "“Herpes zoster vaccine composition” (MOGAM INSTITUTE FOR BIOMEDICAL RESEARCH, priority 2016, dated 2021)",
  "molecules": {"B1": {"name": "gE antigen: VZV glycoprotein E of SEQ ID NO: 1 (protein)", "chain": "MGTVNKPVVGVLMGFGIITGTLRITNPVRASVLRYDDFHTDEDKLDTNSVYEPYYHSDHAESSWVNRGESSRKAYDHNSPYIWPRNDYDGFLENAHEHHGVYNQGRGIDSGERLMQPTQMSAQEDLGDDTGIHVIPTLNGDDRHKIVNVDQRQYGDVFKGDLNPKPQGQRLIEVSVEENHPFTLRAPIQRIYGVRYTETWSFLPSLTCTGDAAPAIQHICLKHTTCFQDVVVDVDCAENTKEDQLAEISYRFQGKKEADQPWIVVNTSTLFDELELDPPEIEPGVLKVLRTEKQYLGVYIWNMRGSDGTSTYATFLVTWKGDEKTRNPTPAVTPQPRGAEFHMWNYHSHVFSVGDTFSLAMHLQYKIHEAPFDLLLEWLYVPIDPTCQPMRLYSTCLYHPNAPQCLSHMNSGCTFTSPHLAQRVASTVYQNCEHADNYTAYCLGISHMEPSFGLILHDGGTTLKFVDTPESLSGLYVFVVYFNGHVEAVAYTVVSTVDHFVNAIEERGFPPTAGQPPATTKPKEITPVNPGTSPLLR", "modifications": "Human herpesvirus 3"}},
  "key": {"[1]": {"system": "VZV antigen", "test": "VZV antigen-specific IgG titer (ELISA) after immunization", "format": "in vivo, C57BL/6 mice", "settings": "Experimental Example 10, FIG. 12; gE alone versus gE together with gI or IE63 antigen", "description": "(§1) Since humans have a history of chickenpox infection, in order to mimic chickenpox infection in mice, live attenuated vaccine (LAV, 3000 pfu) was subcutaneously injected once to female C57BL/6 mice to perform primary immunization (LAV priming). After 28 days from the LAV priming (Day 0), various VZV vaccine compositions with or without VZV protein immunogen or adjuvant were administered by intramuscular injection to perform secondary immunization. […]\nAfter performing the primary immunization and the secondary immunization, ELISA (enzyme-linked immunosorbant assay) was carried out for measuring VZV antigen-specific IgG titer. […] The HRP reaction was stopped by adding ELISA stop solution and optical density (OD) was measured using a spectrometer at a wavelength of 450 nm.\nVarious VZV antigen-specific IgG titers depending on the use of SLA-SE were determined in the same manner as in Experimental Example 2-1 except that any one of gE, gI, IE63, gB, gC, and gL was used as an antigen in the secondary immunization and SLA-SE was used as an adjuvant, and the results are summarized in FIGS. 8 and 9. […]"}, "[2]": {"system": "entire VZV (VZV lysate)", "test": "IFN-γ ELISPOT assay, leukocyte stimulation with VZV lysate", "format": "in vivo, C57BL/6 mice", "settings": "Experimental Example 10, FIG. 12; gE alone versus gE together with gI or IE63 antigen", "description": "as §1\nAfter performing the primary immunization and the secondary immunization, mouse IFN-γ ELISPOT (enzyme-linked immunospot) assay was carried out to confirm VZV antigen-specific cell-mediated immune response (CMI). […] The number of the resulting spots were counted with a device.\nThe gE protein, gE OLP, or VZV lysate-specific cell-mediated immune responses were measured according to the method of Experimental Example 2-2 (IFN-γ ELISPOT assay), and the experimental results are summarized in FIGS. 3, 4, and 5. […]\nThe gE protein, gE OLP, or VZV lysate-specific cell-mediated immune responses were measured according to the method of Experimental Example 2-2 (IFN-γ ELISPOT assay), and the experimental results are summarized in FIGS. 15, 16, and 17."}},
  "data": [
    {"molecule": "B1", "values": [
      {"measurement": "VZV-specific antibody response", "setting": "[1]", "value": "not significantly different"},
      {"measurement": "VZV-specific T cell response", "setting": "[2]", "value": "not significantly different"}
    ]}
  ]
}
